T1: human ZnT2 with C-terminal FLAG tag (human, UniProt Q9BRI3 1-372, limits assumed)
T1 construct: Commercial HEK293 lysate (Origene), SDS-denatured on immunoblots; not shown: C-terminal FLAG octapeptide
T1 sequence (looked up): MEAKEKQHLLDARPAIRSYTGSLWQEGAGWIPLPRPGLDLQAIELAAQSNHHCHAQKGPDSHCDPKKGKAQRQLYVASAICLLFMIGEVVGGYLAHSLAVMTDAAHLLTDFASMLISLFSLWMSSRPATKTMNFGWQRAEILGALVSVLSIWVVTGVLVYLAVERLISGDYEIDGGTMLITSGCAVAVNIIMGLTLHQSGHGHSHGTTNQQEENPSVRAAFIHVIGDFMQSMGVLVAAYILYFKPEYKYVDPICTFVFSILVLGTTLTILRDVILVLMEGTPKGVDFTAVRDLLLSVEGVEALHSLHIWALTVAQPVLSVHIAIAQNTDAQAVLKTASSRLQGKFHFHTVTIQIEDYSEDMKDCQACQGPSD

T2: human ZnT7 with C-terminal FLAG tag (human, UniProt Q8NEW0 1-376)
T2 construct: Commercial HEK293 lysate (Origene), SDS-denatured on immunoblots; not shown: C-terminal FLAG octapeptide
T2 sequence (looked up): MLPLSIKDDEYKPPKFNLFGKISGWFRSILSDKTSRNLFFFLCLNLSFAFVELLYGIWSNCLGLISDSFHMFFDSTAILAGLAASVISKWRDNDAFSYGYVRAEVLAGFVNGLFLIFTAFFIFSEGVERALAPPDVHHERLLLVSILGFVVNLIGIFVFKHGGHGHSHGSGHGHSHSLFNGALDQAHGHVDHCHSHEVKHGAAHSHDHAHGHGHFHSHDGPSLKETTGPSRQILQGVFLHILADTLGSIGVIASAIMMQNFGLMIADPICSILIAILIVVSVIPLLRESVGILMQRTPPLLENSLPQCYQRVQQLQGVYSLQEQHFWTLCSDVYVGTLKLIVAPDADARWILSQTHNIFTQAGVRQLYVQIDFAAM

T3: mouse ZnT8-His (mouse, UniProt Q8BGG0 1-367, limits assumed)
T3 construct: Over-expressed in HEK293 cells, solubilized with DDM and immobilized on Ni-NTA plates, or SDS-denatured on immunoblots; not shown: C-terminal poly-histidine tag
T3 sequence (looked up): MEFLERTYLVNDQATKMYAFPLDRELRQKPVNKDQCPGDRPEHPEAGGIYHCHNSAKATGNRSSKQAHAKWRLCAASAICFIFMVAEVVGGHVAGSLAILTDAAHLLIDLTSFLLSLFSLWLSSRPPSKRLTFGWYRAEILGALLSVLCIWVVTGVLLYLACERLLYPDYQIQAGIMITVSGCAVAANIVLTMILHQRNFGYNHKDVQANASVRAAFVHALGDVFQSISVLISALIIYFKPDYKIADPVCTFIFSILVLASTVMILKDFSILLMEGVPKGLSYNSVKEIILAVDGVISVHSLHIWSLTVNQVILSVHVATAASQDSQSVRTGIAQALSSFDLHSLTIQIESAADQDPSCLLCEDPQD

B1: mAb20 (antibody, V domains shown)
VH: QIQLVQSGPELKKPGETVKISCKASGYIFTNYPMHWVKQAPGKGLKWMGWINTYSGVPTHADDFKGRFAFSLETSANSAFLQINNLKNEDTATYFCTRSRITPTGGYAMDYWGQGTSVTVSS
VL: DVVMTQTPLSLPVSLGDQASISCRSSQSLVHSNGNTYLHWYLQKPGQSPNLLISKVSNRFSGVPERFSGSGSGTDFTLKISRVEAEDLGVYFCSQNTHVPWTFGGGTKLEIKR
notes: Mouse hybridoma mAb purified on protein A/G; In some assays it was labelled with Alexa Fluor 488 or terbium cryptate; also called monoclonal antibody mAb20; anti-ZnT8 mAb20
B2: mAb39 (antibody, V domains shown)
VH: QVQLQQPGAELVKPGASVKLSCKASGYSFTTYWMHWVKQRPGQGLEWVGDINPRNGRTNYNEKSKSKATLTVDISSSTVYMQVSSLTSEDSAVYYCAIWSGAMDYWGPGTSVTVSS
VL: DVVMTQTPLSLPVSLGDQPSISCKSSQSLVHNNGNTYLHWYLQKPGQSPKLLIYKVSNRFSGVPDRFSGSGSGTDFTLKISRVEAEDLGVYFCSQTTHVPPTFGGGTKLEIKR
notes: Mouse hybridoma mAb purified on protein A/G; In some assays it was labelled with Alexa Fluor 555 or d2; also called monoclonal antibody mAb39; anti-ZnT8 mAb39

What was measured:
[1] = target: T1, human ZnT2 with C-terminal FLAG tag; experiment: immunoblot of HEK293 lysates over-expressing FLAG-tagged ZnT homologs
Description: (§1) FIG. 7A-7D. mAb binding specificities (FIG. 7A) mAb binding to ZnT8-His immobilized to Ni-NTA plate. Bound mAb20 (red) or mAb39 (magenta) was detected by an HRP-conjugated secondary antibody. Solid lines are least-squares fits of binding datapoints to a one-component binding process. Error bars are standard errors (n=8). (FIG. 7B) SDS-denatured mouse ZnT8-His (labeled as M) and human ZnT8-His (labeled as H) on immunoblots were detected by mAb20 or mAb39 as indicated. […] (FIG. 7C) Detection of endogenous human ZnT8 in EndoC-βH cells by mAb20 or […] immunoblotting. An equal amount of EndoC-βH lysate (5 μg total protein) was loaded to each lane. (FIG. 7D) Immunoblotting of HEK lysates with or with over-expression of a ZnT homolog as indicated. An approximately equal amount of total lysate protein (5 μg) was located to each lane, probed by either mAb20, mAb39, or anti-FALG antibody as indicated. FIG. 8. HTRF response to human ZnT8, mouse ZnT8 and human ZnT3.
(§2) Immunoblotting. SDS-solubilized cell lysate of EndoC-β cells or HEK293 cells over-expressing ZnT8 was subjected to SDS-PAGE and probed with a 1:3000 mAb20 or mAb39, followed by 1:3000 anti-mouse HRP-conjugated secondary antibody (GE Healthcare cat. #NA931V). A duplicated gel was Coomassie-stained to show an equal protein loading for each lane ([…]). To compare the mAb20 or mAb39 reactivities to different ZnT homolog, we used commercial HEK293 lysates with lentivirus-mediated over-expression of ZnT1, ZnT2, ZnT3, ZnT4, ZnT7, ZnT8, ZnT10, each is tagged by a Flag tag at the C-terminus (Origene, catalog nos. LY500001, LC412033, LC423751, LC401170, LY415673, LC428544, LC406320, and LC412886). Approximately equal amounts of total protein (5 μg) was loaded to each lane, and then probed with mAb20, mAb39, or anti-FLAG antibody (Origene, catalog no. TA50011-100) as above. The expression levels of ZnT homologs varied with ZnT1 most abundantly expressed.

[2] = target: T2, human ZnT7 with C-terminal FLAG tag; experiment: as above
Description: as §1, §2

[3] = target: T3, mouse ZnT8-His; experiment: ELISA titration on mouse ZnT8-His immobilized on Ni-NTA plate; apparent binding affinity, one-component fit; DDM-solubilized mouse ZnT8 immobilized to Ni-NTA plate via His-tag; mAb titration
Description: as §1
Binding specificities. […] Of note, the epitope-masking effect of ZnT8 immobilization weakened the apparent binding affinities of both mAbs as compared to the affinities determined by flow-cytometry, and such a weakening effect was more pronounced for mAb39, probably due to a closer proximity of the mAb39 epitope to the C-terminal His-tag. Next, we compared the immunoreactivities of mAbs to denatured ZnT8.

Binder | binding result [1] | binding result [2] | Kd [3]
B1 | no binding | no binding | 1420 nM
B2 | no binding | no binding | 35.8 nM

Reference: patent US20210238279A1 (Johns Hopkins, published 2021)
